Substrate in this data set: Nc1ncnc2c1ncn2[C@@H]1O[C@H](COP(=O)(O)NCCc2c[nH]c3ccccc23)[C@@H](O)[C@H]1O
The data set is described as follows: Steady-state kinetics assay. In kind it is biochemical, human. Conditions: other: steady-state 25 °C, pH 7.2.

B1: hHINT2 WT (Homo sapiens) (protein)
chain: GNEVAKAQQATPGGAAPTIFSRILDKSLPADILYEDQQCLVFRDVAPQAPVHFLVIPKKPIPRISQAEEEDQQLLGHLLLVAKQTAKAEGLGDGYRLVINDGKLGAQSVYHLHIHVLGGRQLQWPPG
By Km is commonly meant the substrate concentration at which the rate is half of its maximum. As usually defined, the kcat is the maximal rate divided by the concentration of active sites. By kcat/Km is commonly meant the second-order rate constant that governs catalysis at low substrate concentration. Turning to B1, for the setting “hHINT2 WT”, the Km stood at 0.91 ± 0.098 µM, the kcat worked out at 5.77 ± 0.34 s⁻¹ and the kcat/Km was found to be 6.3e+06 ± 1e+06 M⁻¹ s⁻¹.

B2: hHINT2 R99A (Homo sapiens; R99A) (protein)
chain: GNEVAKAQQATPGGAAPTIFSRILDKSLPADILYEDQQCLVFRDVAPQAPVHFLVIPKKPIPAISQAEEEDQQLLGHLLLVAKQTAKAEGLGDGYRLVINDGKLGAQSVYHLHIHVLGGRQLQWPPG
Take B2: under “hHINT2 R99A”, the Km came to 0.683 ± 0.042 µM, the kcat worked out at 2.65 ± 0.19 s⁻¹ and the kcat/Km worked out at 3.88e+06 ± 810000 M⁻¹ s⁻¹.

B3: hHINT2 R99Q (Homo sapiens; R99Q) (protein)
chain: GNEVAKAQQATPGGAAPTIFSRILDKSLPADILYEDQQCLVFRDVAPQAPVHFLVIPKKPIPQISQAEEEDQQLLGHLLLVAKQTAKAEGLGDGYRLVINDGKLGAQSVYHLHIHVLGGRQLQWPPG
As to B3, for the setting “hHINT2 R99Q”, the Km was determined as 0.84 ± 0.155 µM, the kcat was found to be 6.01 ± 0.26 s⁻¹ and the kcat/Km is 7.2e+06 ± 1.1e+06 M⁻¹ s⁻¹.

B4: hHINT1 Q62A (Homo sapiens; Q62A) (protein)
chain: MADEIAKAQVARPGGDTIFGKIIRKEIPAKIIFEDDRCLAFHDISPQAPTHFLVIPKKHISAISVAEDDDESLLGHLMIVGKKCAADLGLNKGYRMVVNEGSDGGQSVYHVHLHVLGGRQMHWPPG
With B4, where the note is “hHINT1 Q62A”, the Km is 0.015 ± 0.003 µM, the kcat was determined as 0.45 ± 0.02 s⁻¹ and the kcat/Km came out at 2.8e+07 ± 4e+06 M⁻¹ s⁻¹.

B5: hHINT1 Q62R (Homo sapiens; Q62R) (protein)
chain: MADEIAKAQVARPGGDTIFGKIIRKEIPAKIIFEDDRCLAFHDISPQAPTHFLVIPKKHISRISVAEDDDESLLGHLMIVGKKCAADLGLNKGYRMVVNEGSDGGQSVYHVHLHVLGGRQMHWPPG
Consider B5, for which, where the note is “hHINT1 Q62R”, the Km was found to be 0.136 ± 0.03 µM, the kcat was 1.4 ± 0.09 s⁻¹ and the kcat/Km was 1.1e+07 ± 2.4e+06 M⁻¹ s⁻¹.
